Results taken from the DeepSol protein solubility set.

Test: soluble on expression in E. coli; label from the status in PepcDB or PDB records

Sequence	soluble on expression in E. coli
MGLELEWMPIEDLKLPSNVIEIIKKRGIKKLNPPQTEAVKKGLLEGNRLLLTSPTGSGKTLIAEMGIISFLLKNGGKAIYVTPLRALTNEKYLTFKDWELIGFKVAMTSGDYDTDDAWLKNYDIIITTYEKLDSLWRHRPEWLNEVNYFVLDELHYLNDPERGPVVESVTIRAKRRNLLALSATISNYKQIAKWLGAEPVATNWRPVPLIEGVIYPERKKKEYNVIFKDNTTKKVHGDDAIIAYTLDSLSKNGQVLVFRNSRKMAESTALKIANYMNFVSLDENALSEILKQLDDIEEGGSDEKELLKSLISKGVAYHHAGLSKALRDLIEEGFRQRKIKVIVATPTLAAGVNLPARTVIIGDIYRFNKKIAGYYDEIPIMEYKQMSGRAGRPGFDQIGESIVVVRDKEDVDRVFKKYVLSDVEPIESKLGSERAFYTFLLGILSAEGNLSEKQLENFAYESLLAKQLVDVYFDRAIRWLLEHSFIKEEGNTFALTNFGKRVADLYINPFTADIIRKGLEGHKASCELAYLHLLAFTPDGPLVSVGRNEEEELIELLEDLDCELLIEEPYEEDEYSLYINALKVALIMKDWMDEVDEDTILSKYNIGSGDLRNMVETMDWLTYSAYHLSRELKLNEHADKLRILNLRVRDGIKEELLELVQISGVGRKRARLLYNNGIKELGDVVMNPDKVKNLLGQKLGEKVVQEAARLLNRFH	soluble
MRTVALGIVAMACLVAIAHGGNFFQDAEVSWGQGRGKIVDGGRGLDLTLDRSSGSGFQSKSEYLFGKIDMQIKLVPGGWWNQELSDMSYRRMRWVQRKFMIYNYCTDAKRFPQGTPAECKLR	not soluble
MAMKIPKSGYNRFMKEGAQHFKGTDEAVQRNIEACTELASQIRSAYGPNGMNKMVINHIEKLFVTNDAATILKELEIQHPAARIIIMATEMQEKQIGDNTNTVVILAAALLEHAANLIHMGMTPQEVAAGYEQAAEKALEILPTLVVKEATDMKNIEEVRQYIRSAITSKQYDNEDIIADLVAKACVTTCPANSFNFNVDNIRICKIIGSGVHTSTVMNGMVFKRGAEGEIREARDARIAVYTCPFDLTQTETKGTVLIENADELRNFSKGEEAEVEEQVKAIADNARSSILAKFWLMNFSKGEEAEVEEQQVKAIADNGVKVVVAAGKFGDMYLHFLNKYKIMAVRLTSKFDLRRLCRTVGAQPQARICAPAVNLLGHCDSVAVQEIGDENVVVFDKKSETGKVATIIIRGSSQSRIDDVERAVDDAVNTYKALTKDGKLLAGAGAVEIELAKEIESFGAKAPGLEQYAIKKFAHALETLPKAIAENAGMPTTETLTKLYAEHVAGKKNAGIDIWKRETMDAVVNNIFDLYAGKRLAIKLATDAASTILKVDQIIMSKQATGGPKPRGPKAQDEDDDGMA	not soluble
MSLADWQNLDPEAAREAEKYENPIPSRELILAHLSERGAPATRSQLLDEFGLAGEEPEEALRRRLRAMERDGQLIYTRRGAYAPVDKLDLIRGRISGHRDGFGFLIPDDGSDDLFLSPTQMRLVFDGDRALARVSGHDRRGRREGQLVEVIERAHEIVVGRYFEESGIGVVVADNPKIQQEVLIPPGKAGKARHNQFVQVRIEQWPSIHRQAQGEIVEVLGDYMAPGMEIEVALRSYDIPHVWPAAVEKEAAKLKPEVAEKDKEKRVDLRQVPFVTIDGEDARDFDDAVYAEAKRGGGWRLFVAIADVSHYVKVGSALDEEAARRGNSVYFPERVIPMLPEVLSNGLCSLNPLVDRLAMVCEMTLSKAGKLTGYQFYEAVIHSHARLTYTKVSQLLEHPDSVEAENLRQQLPGVVPHLQQLYALYKALLAGRHVRGAIDFETQETRIVFGADRKISEIRPTQRNDAHRLIEECMLCANVATARFLQKHAIPALYRVHDGPPQEKLNNLRQFLGELGLSLGRGKAAPTPGDYQELLEKIHDRADFRLIQTVMLRSLSQAVYSPDNNGHFGLNYDAYTHFTSPIRRYPDLLVHRAIRSVIRSKAETPHVQRAGAASMPKARIYPYDELRLDQLGEQCSMTERRADEATRDVTNWLKCEYMRERVGETFPGVITAVTGFGLFVELTDIFVEGLVHVTALPGDYYHFDAVHHRLSGERTGRSFRLGDTTEVVVARVDLDERKIDFELAGNVLSAPIGRKKRNGDKSANAGKAPKGRKGASVPEVDLEPALASPDAAVVPRRKAGKVQALPPVAPELLAQAAEMLGNTDVRKSREVKQALLAEARVGGKDKGGKKGKVVPAGKSAKGKAKDGKPAAAAKPGKPTKHRKGPSKPKADNAPAATGARKRKAKSEGHHHHHH	not soluble
MEMVNAEAKQSVPLLTPYKMGRFNLSHRVVLAPLTRQKSYGSVPQPHAILYYSQRTSPGGFLIAEATGVSDTAQGYPDTPGIWTKEHVEAWKPIVDAVHAKGGIFFCQIWHVGRVSNRGFQPRRQAPISCTGKPIMPQMRANGIDEARFTPPRRLSIEEIPGIVNDFRLAARNAMEAGFDGVEIHGAHGYLIDQFMKDKVNDRTDEYGGSLQNRCKFALEVVDAVAKEIGPDRVGIRLSPFADYMESGDTNPEALGLYMVESLNKYGILYCHMIEPRMKTVGEIAACSHTLMPMREAFKGTFISAGGFTREDGNEAVAKGRTDLVAYGRWFLANPDLPKRFQLDAPLNKYNRSTFYTSDPVVGYTDYPSLESTA	soluble
RNHWVSQYSSVKQEKNEKWQRHWREILGEDTEDLPPYRYDYGLYSGIWQANETLREQCFAALTHGNSVYERVKAFQKMTTHEHNTDDQILLSKLAQLENEIIQALEQHSQKNVSIETGSGTLCKESKHNVYRHENGPTEEQLYNSINLQHDLDRELRNIIYDRLGDDGLDEYFFLRAPLEELTENETAINWMLWGLVSDHFDVDPYQTALELNLMNAEPRWGQDERFVVVTTAA	not soluble
MGKGDPKKPRGKMSSYAFFVQTCREEHKKKHPDASVNFSEFSKKCSERWKTMSAKEKGKFEDMAKADKARYEREMKTYIPPKGETKKKFKDPNAPKRPPSAFFLFCSEYRPKIKGEHPGLSIGDVAKKLGEMWNNTAADDKQPYEKKAAKLKEKYEKDIAAYRAKGKPDAAKKGVVKAEKSKKKKEEEEDEEDEEDEEEEEDEEDEDEEEDDDDE	soluble
ADYVLAIDQGTTSSRAIVFDHSGEIYSTGQLEHDQIFPRAGWVEHNPEQIWNNVREVVGLALTRGNLTHEDIAAVGITNQRETAVVWDKTTGKPVYNAIVWQDTRTQKIVDELGGDEGAEKYKSIVGLPLATYFSGPKIKWILDNVEGAREKAEKGDLLFGNTDTWVLWNMTGGTEGGVHVTDVTNASRTMLMDLDTLSWREDIAADMGIPLSMLPDIRSSSEVYGHGRPRGLVPGVPIAGILGDQQAATFGQACFEVGQAKNTYGTGNFLLLNTGTEKVMSKNGLLTTVCYKIGDAPAVYALEGSIAVTGSLVQWLRDNLGMFEDAPDVEWLAGKVQDNGGAYFVPAFSGLFAPYWRPDARGALVGLTRYVNRNHIARAALEATAFQSREVVDAMNADSGVDLTELRVDGGMVANELLMQFQADQLGVDVVRPKVAETTALGAAYAAGIAVGFWKGEQDVIDNWAEDKRWSPSMESGERERLYRNWKKAVTKTMEWVDEDVEQ	soluble
MGSDKIHHHHHHMRKMMNEQLPISKSSPLKARFYDYPYFTYPWHFHTEYEIIYVKEGTGMRFVGNNAEKYADGDILLLGSDLPHYMKSDEVYRQEGSTLRTTGTIIQFEKDFMHHAFNYYPHFMKIKNLLEEAQRGIYFPAGCSPRLVDLLESIPVETGVDQITSFLQLLKEMANVASRSVLSTSDFENDIIYDGSRIDKIIVYLNKNYTRQIDLNEISSLAAMNPAAFCRFFKSKTGKSFKNYILEMRIGYACKLLLMGDMNISQISVECGFDTISHFNKSFKKHTGFTPSYYKRMMLAE	not soluble
KTHEGHCYIIKAHTPIEEFNEQLNADFSDETYDTIGGIVLNKFGYLPQRGEVIIIDDFEFKVLNADSRRIKLLECLDKR	soluble
TDAMSEEEIKIIINNSYNGGEINQTELAYMQNIFSFDERHAKDIMVPRTQMVTLNEPFNVDELLDTIKEHQFTRYPITEDGDKDHVKGFINVKEFLTEYASGKPIKIANYIHELPMISETTRISDALVRMQREHVHISLIIDEYGGTAGILTMEDILEEIVGEIRDEFDDDEVNDIVKLDDHTY	not soluble
MGSDKIHHHHHHMEVFMITKRPIYNQQLKCVAFEILSCRNVMLNEELTRQLYDLIYHTDTQLPLFVPFSLKKLLEQFETPINNPIILKLSADEIESVYSLTELQDSLFSIALLINTPQQLAWLNFAEYIGLTEQLMSKSDVTKVVQYSKAKNRKIIAYDLNQHVNFEKCKAMTMDYYCGDFLLNSIAEEGTEIAANKLNVLQLIQELQKEDCDLNEITHIIQADPLLSYQLLKLVNSVGFSSGPSIESIDQAVARLGIINLKKWVMLFSMKNISDKPIEVLESGLIRAHMAEELAKKSSNIFSQSAYTAGLLSILDCLLNKPMPALVEQITLAEEIKDALTNKSGPLGDLLSLVIAYEEGHWEEVTQLNINGIDLSQLYIDSLALVSQGTKIMSN	not soluble
MKDESERVSNRLPMDESREHLMVKVARMTYQQELNQSEIAAETGLNRWQVSRLLQEARDLGIVRIEIIPRSPRRPDLETALQQTFNLNDSVVVSSDGEQAQSLDTVAQAAGQYIASIKSNGATVGVSWGRTMGAVAHWLPLQWSDGGEVVQINGTVAPISGVTYHNDVAGIFARKAGARLVPLPVPAIVGQRVTREVLERDRIVADVLTKARSAQILIFSCGSLSEESVLVRSGNILRDELATLLSKGAVGDVLGRFIDVNGEIVDAELDARTIGLSLSDLKTSGKAIGIAAGSEKFNVVLGVLRAGLVNVLVTDEATATFALEHA	not soluble
MDTSLPSAILNNMVTATLILDDGLAIRYANPAAELLFSQSAKRIVEQSLSQLIQHASLDLALLTQPLQSGQSITDSDVTFVVDGRPLMLEVTVSPITWQRQLMLLVEMRKIDQQRRLTQELNQHAQQQAAKLLVRGLAHEIKNPLGGLRGAAQLLEKMLPDPSLTEYTHIIIEQADRLRALVDRLLGPQKPGK	not soluble
MLNQPRLDEIMRLLAQQQRVKASDLAQLLFVSEETIRRDFKHLEEEGRLRRIHGGAILPRSSEELPLQERSRLKPRAKAGIATCAAQLVTEGMAIFLDTGTSTLALAQQLTRFSQLKIITNSLDIAQLISHQSDNQVLVAPGDVRRTDNALIGPHTLEFARQFHYDIAFMGIGGIDLDLGLMDYQEPEAMLRRTLVRHCARSVVLADDGKFGHRTFINTLPFAAITTLVTNRPLSDEFATRLEKDHVDTLYP	not soluble
MAHHHHHHMLSKGNVKNLATDEINEMIDNSLKSGDTDEAPYFLQQNNIYWETGHRTYIPFFHFMIHKYTTKIIDDQIRKFTESVKSVHHTPYVFHKDGYFRSYYGDPDINMVFNLKKNTNFIFNSTGTHNSYSLLCNNNTYDKSTHIFDQVLMSAFKLDLKSVLENNV	not soluble
GPGSMSTSQPIVKPFIYLRIPSEDARPVEELHFNGHNEAELRHTLTRCFRQSLLSDDQKKDMARHLADKASESAKKHAVKGNGDASAAGSGAEPPVDVEQQQAAMIDQYLEQASYEIIPVTMPMRSTQYIGTSLYIDDSGAFKDLPLNYRASKLAQREIRGDAFLLSNHDDPALDEWGRVDCPLQRYEELYANPPQIAYDPSNQAQMTQAAMLRETETKKISLEDYEKAQKAKEDGNRLFAANDLPAAVQAYSMTVDLTDGRRDLLPNEEAATQLRLSALLNRCLCFTRLKKFPEAVRDAQAAAYLDPKSMKAYYRLTYALCGAQEYEAAAQACEKYAQLGGAEEDVTAMRTAVAAGETEVKKAQKQIFSKMFRS	soluble
MADFLTRFIREELSWRGYEKAIVAVSGGVDSATTLALAVRALGAERVHALFLPHRESSPTSREHAYLVAETFGVALEEVDITPMVEGYAALTPDLTPHRKGNVMARARMIVLFDKSEAYRALPLGTGNKTERLFGYFTWHGDDTPPVNPLGDLYKTQVWRLAEHLGVPEEVVRKPPTADLIPGQTDEADLGLRYLRADVILEHYLKGYSDQYILGLGFTEEELRRVKERVNRTHWKRALPTVALLSSTAIGEFYLRPLDYRP	soluble
